Data published in patent publication CN113234156A.

Key:
[1] = biological target: T1, Mb重组蛋白 (recombinant myoglobin) (UniProt P02144); experiment: indirect ELISA; Mb coated 2 ug/mL; hybridoma supernatant 1/50
T1 sequence (looked up): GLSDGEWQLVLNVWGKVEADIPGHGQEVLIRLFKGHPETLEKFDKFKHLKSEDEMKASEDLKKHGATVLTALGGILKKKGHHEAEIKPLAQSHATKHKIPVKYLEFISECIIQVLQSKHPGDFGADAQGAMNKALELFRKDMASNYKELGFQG

[2] = biological target: T1, Mb重组蛋白 (recombinant myoglobin); experiment: as above; remark: listed apart in the source
[3] = biological target: T1, Mb重组蛋白 (recombinant myoglobin); experiment: indirect ELISA; Mb coated 2 ug/mL; hybridoma supernatant 1/100
[4] = biological target: T1, Mb重组蛋白 (recombinant myoglobin); experiment: indirect ELISA; Mb coated 2 ug/mL; hybridoma supernatant 1/200
[5] = biological target: T1, Mb重组蛋白 (recombinant myoglobin); experiment: indirect ELISA; Mb coated 2 ug/mL; hybridoma supernatant 1/400

B1: 鼠单克隆抗体 1E6 (antibody, V domains shown)
VH: EVQLQQSGAELVKPGASVKLSCTTSGFNIKDTYIHWVRQRPEQGLEWIGNIDPANGNTKYDPEFQGKATITADTSSNTAYLHLSSLTSEDTAVYYCARVDGSRDFDYWGQGTTLTVSS
VL: DIVMTQAAPSVTVTPGESVSISCRSSKSLLYSNGNTYLYWFLQRPGQSPQLLIYRMSNLASGVPDRFSGSGSGTAFTLRISRVEAEDVGVYYCMQHLEYPLTFGGGTKLELK
- OD450 [1]: 1.73 OD
- OD450 [2]: 1.69 OD
- OD450 [3]: 1.33 OD
- OD450 [4]: 1.18 OD
- OD450 [5]: 0.857 OD

B2: 鼠单克隆抗体 9B2 (antibody, part only; not given: light chain variable domain, V domains shown, part only)
VH: QVQLQQSGAALVRPGTSVKVSCKASGYAFTNYLIEWVKQRPGQGLEWIGVINPGSGGTDYNEKFKGKATLTADKSSSTAYMQLSSLTSDDSAVYFCARSSLYGSSRMDYWGQETSVTVSS
- OD450 [1]: 1.7 OD
- OD450 [2]: 1.69 OD
- OD450 [3]: 1.63 OD
- OD450 [4]: 1.46 OD
- OD450 [5]: 1.27 OD
